{"source": "paper PMC5696371", "about": "“The HSF1–PARP13–PARP1 complex facilitates DNA repair and promotes mammary tumorigenesis” (Nature Communications, 2017)", "molecular_target": "T1, hPARP13-His (human, UniProt Q7Z2W4 1-902)", "T1 construct": "human PARP13 cDNA in pET21a, His tag at the C terminus; also called His-tagged hPARP13; source: E. coli, purified (Ni Sepharose 6 Fast Flow); not shown: His, C-terminal, kept", "T1 sequence (Q7Z2W4 whole entry, the tested form may be a part)": "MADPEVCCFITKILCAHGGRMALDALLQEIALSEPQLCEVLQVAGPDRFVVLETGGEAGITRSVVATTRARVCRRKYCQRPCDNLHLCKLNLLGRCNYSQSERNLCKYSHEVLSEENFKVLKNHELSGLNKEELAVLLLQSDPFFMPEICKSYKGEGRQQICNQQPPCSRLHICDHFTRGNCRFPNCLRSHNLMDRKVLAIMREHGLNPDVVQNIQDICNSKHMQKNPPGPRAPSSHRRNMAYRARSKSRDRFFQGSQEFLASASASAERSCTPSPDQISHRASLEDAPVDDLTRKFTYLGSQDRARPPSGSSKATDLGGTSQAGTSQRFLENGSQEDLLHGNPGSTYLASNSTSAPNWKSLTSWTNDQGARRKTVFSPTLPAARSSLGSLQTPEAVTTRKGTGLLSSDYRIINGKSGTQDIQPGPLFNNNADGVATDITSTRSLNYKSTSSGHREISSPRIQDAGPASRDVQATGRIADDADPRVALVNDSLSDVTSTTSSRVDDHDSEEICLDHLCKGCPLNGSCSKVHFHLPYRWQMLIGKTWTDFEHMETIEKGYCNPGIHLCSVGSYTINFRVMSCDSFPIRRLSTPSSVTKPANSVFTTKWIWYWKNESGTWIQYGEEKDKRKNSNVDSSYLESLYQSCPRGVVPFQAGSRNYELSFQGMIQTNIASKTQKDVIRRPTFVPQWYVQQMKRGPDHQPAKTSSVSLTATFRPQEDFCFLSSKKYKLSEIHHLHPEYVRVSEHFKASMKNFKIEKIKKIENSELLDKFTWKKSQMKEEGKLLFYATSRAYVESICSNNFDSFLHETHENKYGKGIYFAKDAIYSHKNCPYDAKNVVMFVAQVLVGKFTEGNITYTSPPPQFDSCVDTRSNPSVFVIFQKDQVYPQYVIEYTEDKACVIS", "experiment": "pull-down; purified GST fusion proteins and purified hPARP13-His mixed in NT buffer (50 mM Tris-HCl pH 7.5, 150 mM NaCl, 1 mM EDTA, 0.5% NP40) for 1 h at 4 °C, then glutathione-sepharose beads 2 h at 4 °C; immunoblotting", "conditions": "both partners purified"}
{"binder": "GST-hHSF1 (natural protein, human, UniProt Q00613 1-529, looked up, human HSF1 fused to GST; the legend marks 'full-length GST-fusion proteins'; source: E. coli, purified (Glutathione Sepharose 4B)) MDLPVGPGAAGPSNVPAFLTKLWTLVSDPDTDALICWSPSGNSFHVFDQGQFAKEVLPKYFKHNNMASFVRQLNMYGFRKVVHIEQGGLVKPERDDTEFQHPCFLRGQEQLLENIKRKVTSVSTLKSEDIKIRQDSVTKLLTDVQLMKGKQECMDSKLLAMKHENEALWREVASLRQKHAQQQKVVNKLIQFLISLVQSNRILGVKRKIPLMLNDSGSAHSMPKYSRQFSLEHVHGSGPYSAPSPAYSSSSLYAPDAVASSGPIISDITELAPASPMASPGGSIDERPLSSSPLVRVKEEPPSPPQSPRVEEASPGRPSSVDTLLSPTALIDSILRESEPAPASVTALTDARGHTDTEGRPPSPPPTSTPEKCLSVACLDKNELSDHLDAMDSNLDNLQTMLSSHGFSVDTSALLDLFSPSVTVPDMSLPDLDSSLASIQELLSPQEPPRPPEAENSSPDSGKQLVHYTAQPLFLLDPGSVDTGSNDLPVLFELGEGSYFSEGDGFAEDPTISLLTGSEPPKAKDPTVS", "values": [{"measurement": "binding result", "result": "binds"}]}
